Laboratory results as given in CN113173995A (SHANGHAI PUBLIC HEALTH CLINICAL CT, dated 2021).

Legend:
Test in all cases: cell-based or functional assay
SARS-CoV-2 S蛋白突变株E309D = SARS-CoV-2 S蛋白突变株E309D (SARS-CoV-2, UniProt P0DTC2 14-1273)
SARS-CoV-2 S蛋白突变株F342L = SARS-CoV-2 S蛋白突变株F342L (SARS-CoV-2, UniProt P0DTC2 14-1273)
SARS-CoV-2 S蛋白突变株A372T = SARS-CoV-2 S蛋白突变株A372T (SARS-CoV-2, UniProt P0DTC2 14-1273)
SARS-CoV-2 S蛋白突变株T376A = SARS-CoV-2 S蛋白突变株T376A (SARS-CoV-2, UniProt P0DTC2 14-1273)
SARS-CoV-2 S蛋白突变株P491A = SARS-CoV-2 S蛋白突变株P491A (SARS-CoV-2, UniProt P0DTC2 14-1273)

Measured: 假病毒中和 IC50 (Huh-7细胞, 荧光素酶)

B1: 全人源新型冠状病毒单抗REGN10989 (antibody, V domains shown)
VH: QVQLVQSGAEVKKPGASVKVSCKASGYIFTGYYMHWVRQAPGQGLEWMGWINPNSGGANYAQKFQGRVTLTRDTSITTVYMELSRLRFDDTAVYYCARGSRYDWNQNNWFDPWGQGTLVTVSS
VL: QSALTQPASVSGSPGQSITISCTGTSSDVGTYNYVSWYQQHPGKAPKLMIFDVSNRPSGVSDRFSGSKSGNTASLTISGLQAEDEADYYCSSFTTSSTVVFGGGTKLTVL
> 50 µg/mL: all assays above
